Experimental data from patent US20250084178A1, “ANTI-CD39 ANTIBODIES AND USE THEREOF” (ARCUS BIOSCIENCES, INC., priority 2022, published 2025).
Entries after “also recorded” stand apart in the source; their conditions may differ.

Tests used:
[1] = system: MC38 tumors; assay: MC38 tumor volume in C57BL/6 hCD39KI mice; format: in vivo, mouse; details: anti-CD39 20 mg/kg loading then 10 mg/kg BIW i.p. with oxaliplatin 5 mg/kg i.p. 1×/week; mixed-effects model
Method: (§1) In one experiment, C57BL/6 hCD39KI mice were inoculated with 1 million MC38 cells on day 0. When tumors reached 80 mm^3, mice were dosed intraperitoneally (i.p.) with a loading dose of 20 mg/kg anti-CD39 or isotype control antibody (vehicle: PBS), and then subsequently with 10 mg/kg anti-CD39 or isotype control antibody 2×/week (BIW). Each group consisted of 11-12 mice. […] Oxaliplatin (OXA) treatment, 5 mg/kg i.p. (vehicle: saline), was initiated the day following the anti-CD39 or isotype control loading dose and dosed 1×/week. In a similarly designed experiment, BALB/c hCD39KI mice were inoculated with 4T1 cells on day 0 and treated OXA or anti-CD39 antibody as described for the MC38 model.
(§2) Tumor volume and body weight were measured approximately twice a week (BIW) and are shown in FIG. 10A and FIG. 10B respectively, where the points represent the mean and the errors bars the standard error of the mean (SEM) of the respective metrics from each group of mice. Significance was calculated using a mixed-effects model with multiple comparisons. […] Body weight was stable over the course of the experiment indicating anti-CD39 treatment was well tolerated (FIG. 10B).

[2] = biological target: T1, human CD39 (Homo sapiens, UniProt P49961); assay: Enzyme histochemistry of tumors and spleens from C57BL/6 hCD39KI MC38 mice; parameters: species or system mouse; details: tumors and spleens treated in vivo, end of study
T1 sequence (P49961 1-510): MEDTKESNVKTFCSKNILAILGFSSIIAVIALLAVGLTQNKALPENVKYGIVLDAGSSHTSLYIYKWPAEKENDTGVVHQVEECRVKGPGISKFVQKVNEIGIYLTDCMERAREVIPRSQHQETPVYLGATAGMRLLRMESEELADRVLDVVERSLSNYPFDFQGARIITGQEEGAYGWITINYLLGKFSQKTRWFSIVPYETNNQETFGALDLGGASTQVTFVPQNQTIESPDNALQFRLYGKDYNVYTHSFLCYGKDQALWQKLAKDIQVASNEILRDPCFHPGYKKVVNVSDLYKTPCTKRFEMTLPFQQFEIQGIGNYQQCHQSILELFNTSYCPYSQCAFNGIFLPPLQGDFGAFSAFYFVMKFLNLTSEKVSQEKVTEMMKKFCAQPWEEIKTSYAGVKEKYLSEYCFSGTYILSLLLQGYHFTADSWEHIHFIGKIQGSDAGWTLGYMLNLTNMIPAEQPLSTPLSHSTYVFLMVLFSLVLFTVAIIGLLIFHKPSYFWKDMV
Method: Tumors and spleens from C57BL/6 hCD39KI MC38 mice at the end of the study were additionally analyzed for human CD39 expression by immunohistochemistry (IHC) and evidence of anti-CD39 antibody enzymatic blocking activity by enzyme histochemistry (EHC). Briefly, frozen OCT-embedded tumor or spleen samples were sectioned at 4 um thickness, mounted on positively charged microscope slides, air dried for 15 minutes, then placed in 4% paraformaldehyde (PFA) fixative for 20 min. After fixation, the slides were washed in Tris-buffered saline and IHC was performed on an automated Leica Bond Rx platform starting with blocking of endogenous peroxidases, followed by incubation with a rabbit anti-CD39 mAb (Abcam, EPR20627), and detected with an anti-rabbit HRP polymer system followed by a diaminobenzidine (DAB) brown chromogen, hematoxylin nuclear counterstain, and then dehydrated and mounted. […] Human CD39 expression was detected in both isotype treated (FIG. 11, panel A and FIG. 12, panel A, low- and high-power magnification, respectively) and anti-CD39 treated tumors (FIG. 11, panel C and […], low- and high-power magnification, respectively), localized to vascular endothelia, infiltrating immune cells, and stromal components of the tumor microenvironment. […]

[3] = Body weight of hCD39KI MC38 mice; format: in vivo, mouse; details: over the course of the experiment; C57BL/6 hCD39KI MC38 mice
Method: as §1, §2

[4] = biological target: T2, CD39 enzymatic activity (Homo sapiens, UniProt P49961); assay: Ex vivo intratumoral CD39 enzymatic activity (Kinase-Glo Plus); format: in vivo, mouse; details: MC38 and 4T1 tumor cell suspensions, 20 μM ATP
T2 construct: from tissue; host or cells: hCD39KI mice (C57BL/6 with MC38, BALB/c with 4T1): tumours, spleen, whole blood / WBCs, tumour-draining lymph nodes
T2 sequence (P49961 1-510): T1 sequence (P49961 1-510)
Method: Intratumoral and peripheral CD39 enzymatic activity was also evaluated ex vivo. Upon study completion, tumor samples obtained after sacrificing C57BL/6 hCD39KI MC38 and BALB/c hCD39KI 4T1 mice were placed in RPMI+20% FBS+250 μg/ml collagenase D (Millipore Sigma, Cat. No. 11088858001)+100 KU/ml DNAse 1 (Millipore Sigma Cat. No. D5025-150KU) and enzymatically digested using gentleMACS™ Octo Dissociator to obtain a single cell suspension. […] The cells were then treated with 20 μM ATP and incubated for an additional 30 minutes at 37° C., 5% CO2. At the end of the incubation period, the 96-well plate was spun at 1000 rpm for 3 minutes and the supernatant was collected. 2× Kinase-Glo® Plus (Promega, Cat. No. V3771) was then added to the supernatants. ATP levels in the supernatants were then measured by detecting luminescence using Flexstation® 3 microplate reader. Data are presented as relative luminescence units (RLU).

[5] = system: immune subpopulations in tumor draining lymph nodes; assay: Tumor draining lymph node immune subpopulation percentages; format: in vivo, mouse; details: single agent or in combination with oxaliplatin
Method: (§3) Cell surface CD39 decreases with anti-CD39 treatment in tumor draining lymph nodes of hCD39KI mice. Tumor draining lymph nodes (TLDNs) (right inguinal lymph node) were also collected at the end of the C57BL/6 hCD39KI MC38 mouse study described above. Lymph nodes were dissociated in a 37° C. water bath in RPMI 1640 (Gibco, Cat. No. 11875119) containing of 0.6 mg/mL Collagenase P (Roche, Cat. No. 11213865001), 2.4 mg/mL Dispase II (Sigma, Cat. No. D4693), and 0.3 mg/mL DNAse I (Thermo Scientific, Cat. No. J62229 MB) for 30 minutes with gentle agitation. The dissociated lymph nodes were counted and 2×10^5 cells per well were plated in a 96-well polypropylene v-bottom plate. Cells were washed in PBS (Gibco, Cat. No. 14190-144) and resuspended in a PBS solution containing 1:25 Fc Block (BD, Cat. No. 564220) and 1:250 Near IR Fluorescent Reactive Dye (Invitrogen, Cat. No. L34976A) for 15 minutes in the dark. After the incubation, the cells were stained with an antibody cocktail (Table 20) and incubated for 30 minutes at 4° C. After the incubation, the cells were pelleted, supernatant removed, and 100 μL of fixation buffer (eBioscience, Cat. No. 00-8222-49) was added for 1 hour. […]

[6] = biological target: T2, CD39 enzymatic activity; assay: Ex vivo peripheral white blood cell CD39 enzymatic activity; format: in vivo, mouse; details: white blood cells of 4T1 tumor-bearing hCD39KI mice, 20 μM ATP
From the text: To assay peripheral CD39 enzymatic activity, peripheral white blood cells (WBCs) were isolated from terminal blood samples of hCD39KI mice and assayed as generally described for the tumor cell suspensions. Briefly, whole blood samples were mixed with 1×Pharm Lyse red blood cell lysing solution (BD Biosciences, Cat. No. 555899). WBC pellets were then collected after washing with 1×PBS solution and stored in BamBanker cell freezing medium (Bulldog Bio, Cat. No. BB01). To perform the enzymatic inhibition assay, samples were thawed and then cells were plated at 2.5×10^4 cells per well in a 96-well plate. […] All wells were then treated with 20 μM ATP and incubated for 2 hours at room temperature. At the end of the incubation period, the 96-well plate was spun at 1000 rpm for 3 minutes and the supernatant was collected. 2× Kinase-Glo® Plus (Promega, Cat. No. V3771) was then added to the supernatants. ATP levels in the supernatants were then measured by detecting luminescence using Flexstation® 3 microplate reader. Data are presented as relative luminescence units (RLU).

[7] = Peripheral cytokine levels in plasma (MSD); format: in vivo, mouse; details: terminal bleed, mice bearing MC38 tumors
Method: A terminal bleed of the mice bearing MC38 tumors were collected into BD Vacutainer® Heparin Tubes (BD Biosciences, Cat. No. 367871), centrifuged at 2000×g for 15 minutes, and supernatant plasma samples were collected. Cytokine levels in the plasma samples were analyzed using MSD following manufacturer's instructions. […] Data are presented as mean±SEM with a total of 11-12 mice per treatment group (FIG. 18). Statistical analyses were performed using an ANOVA with Tukey's multiple comparison test.

[8] = biological target: T1, human CD39; assay: Tumor draining lymph node cell surface CD39; format: in vivo, mouse; details: tumor draining lymph nodes, hCD39KI MC38 mice
Method: as §3

B1: ch39_mIGG2A.AAG: antibody 39 variable regions on mouse IgG2a; HC SEQ ID NO: 41, LC SEQ ID NO: 42; the anti-CD39 of Example 9 (antibody)
heavy: EVQLVESGGGLVQPGRSLKLSCLASGFTFNNYGMNWIRQAPGKGLEWVASFSSSSTYISYADTVKGRFTISRENAKNTLYLQMTSLRSEDTALYYCVRHGRYGGYGGFYFDYWGQGVMVTVSSAKTTAPSVYPLAPVCGDTTGSSVTLGCLVKGYFPEPVTLTWNSGSLSSGVHTFPAVLQSDLYTLSSSVTVTSSTWPSQSITCNVAHPASSTKVDKKIEPRGPTIKPCPPCKCPAPNAAGGPSVFIFPPKIKDVLMISLSPIVTCVVVDVSEDDPDVQISWFVNNVEVHTAQTQTHREDYNSTLRVVSALPIQHQDWMSGKEFKCKVNNKDLGAPIERTISKPKGSVRAPQVYVLPPPEEEMTKKQVTLTCMVTDFMPEDIYVEWTNNGKTELNYKNTEPVLDSDGSYFMYSKLRVEKKNWVERNSYSCSVVHEGLHNHHTTKSFSRTPGK
light: DTVLTQSPALAVSPGERVSISCRASEGVKSYMHWYQQKPGQQPKLLIYKASNLASGVPARFSGSGSGTDFTLTIDPVEADDTATYFCQQSWNDPTFGAGTKLELKRADAAPTVSIFPPSSEQLTSGGASVVCFLNNFYPKDINVKWKIDGSERQNGVLNSWTDQDSKDSTYSMSSTLTLTKDEYERHNSYTCEATHKTSTSPIVKSFNRNEC
Tumor volume: p for anti-CD39+saline vs. anti-CD39+OXA [1]: 0.0217
Tumor volume: p for isotype+OXA vs. anti-CD39+OXA [1]: 0.0372
Lead-phosphate deposition by enzyme histochemistry (CD39 enzymatic activity) [2]: enzymatic activity has been blocked
Body weight [3]: stable
Intratumoral CD39 enzymatic activity [4]: inhibited
Immune subpopulation percentages [5]: did not result in significant changes
Immune subpopulation percentages ([5]; listed as anti-CD39): No significant changes
Peripheral CD39 enzymatic activity [6]: inhibited
Peripheral cytokine levels [7]: No elevation
Human CD39 on the surface of immune subpopulations [8]: significant reduction; also recorded: significant decrease
